Experimental data as given in US11242370B2, “Neuregulin-4 compounds and methods of use” (Eli Lilly and Company, priority 2019, dated 2022).

Key:
[1] = target: T1, human HER2/HER3 (Homo sapiens, UniProt P21860); experiment: Human HER2/HER3 phospho-ERK 1/2 assay, purified proteins, CHO-K1 cells; format: cell-based; conditions: for EC50: purified proteins, phospho-ERK1/2
T1 construct: expressed in transfected cells
Experimental: A cell based assay utilizing CHO-K1 cells overexpressing human or rat HER receptors is used to determine activity of NRG4 compounds. CHO-K1 cells (ATCC) are grown in DMEM-F12 3:1 with 5% FBS with 20 mM HEPES, 40 μg/mL L-Proline, lx antibiotics and were split 1:5 every 2-3 days with TripLE Express (Gibco). Cells are transfected with plasmid DNA encoding HER receptors in pairs (hHER2-3, hHER2-4, rHER2-3 and rHER2-4) with Fugene 6 (Promega) according to the manufacturer's instructions. […] Transfected cells are selected with Puromycin (12 ug/ml) and Hygromycin (1 mg/ml) for 3-4 weeks and clonal lines are obtained by limited dilution cloning into 96 well plates. Clonal lines are selected by appropriate gene expression of HER2, HER3 or HER4 by Taqman method. Lines with appropriate receptor expression are confirmed by NRG1 induced phospho-ERK 1/2 responses. Clones are grown up, harvested, aliquoted into cryovials and then frozen under liquid nitrogen for long-term storage.
A phospho-ERK1/2 activity assay is utilized with CHO-K1 cells overexpressing human or rat HER receptors to determine potencies and selectivity of purified NRG4 compounds. CHO-K1 cell lines expressing the human or rat HER receptors are cultured with selection medium (DMEM-F12 3:1 with 5% FBS with 20 mM HEPES, 40 μg/mL L-Proline, 1× antibiotics, 12 μg/mL puromycin, 1 mg/mL Hygromycin B). On Day −1 (the day before phospho-ERK1/2 assay), cells are washed once with PBS, detached with enzyme free cell dissociation solution (GIBCO cat #13151-014), and resuspended in plating medium (DMEM-F12 3:1 with 20 mM HEPES, lx antibiotics, 0.2% FBS). Cells are plated in a 96-well Poly-D-Lysine coated plate (BD cat #354640) at 10,000 cells per 0.1 mL per well. Cells are cultured in a tissue culture incubator at 37° C. 5% CO2 overnight. On Day 1 (the day of pERK1/2 assay), plates are incubated at room temperature for 30 min. The culture media are removed followed by addition of 504, ligand at various concentrations diluted in PBS-20 mM HEPES-0.005% BSA. Native human NRG1 and NRG4 peptides are purchased from Reprokine (Tampa, Fla.). The stimulation time is 30 min (except for hHER2-4 1H6 line in which 15 min is used for stimulation). At the end of stimulation, ligands are removed and 704, Lysis buffer (made according to manufacturer's recipe, Perkin Elmer cat #ALSU-PERK-A10K) is added. Plates are incubated at room temperature for 10 min on plate shaker with 350 rpm agitation, then on ice for 1 hour without shaking. 304, of cell lysis is transferred to a 96-well white Optiplate (Perkin Elmer cat #6002290) for phospho-ERK1/2 assay. Briefly 7.5 μL acceptor beads are added to 30 μL lysis in Optiplate. The plate is covered with aluminum foil and incubated at room temperature for 1 hour on plate shaker with 350 rpm agitation. Then 7.5 μL donor beads are added and the plate is covered with aluminum foil and incubated at room temperature for 2 hours on plate shaker with 350 rpm agitation or at 4° C. for overnight (warm up plate at room temperature for 2 h before reading). Alpha signal data are obtained on an Envision instrument (Alpha Technology-compatible plate reader). Donor beads and acceptor beads are made according to assay protocol. The data shown are generated with either the AlphaScreen SureFire p-ERK1/2 (Thr202/Tyr204) assay kit (Cat #TGRES50k) or the AlphaLISA® SureFire® Ultra™ p-ERK 1/2 (Thr202/Tyr204) assay kit (Perkin Elmer cat #ALSU-PERK-A10K). The activity of the NRG1 peptide was similar in both types of assays. […]

[2] = target: T2, HER4 receptor extracellular domain (ECD) (Homo sapiens, UniProt Q15303); experiment: HER4/NRG-Fc binding assay (ELISA) for screening NRG4 variants
T2 construct: C-terminal His-tagged HER4 receptor extracellular domain (ECD) construct
T2 sequence (Q15303 26-651 limits assumed): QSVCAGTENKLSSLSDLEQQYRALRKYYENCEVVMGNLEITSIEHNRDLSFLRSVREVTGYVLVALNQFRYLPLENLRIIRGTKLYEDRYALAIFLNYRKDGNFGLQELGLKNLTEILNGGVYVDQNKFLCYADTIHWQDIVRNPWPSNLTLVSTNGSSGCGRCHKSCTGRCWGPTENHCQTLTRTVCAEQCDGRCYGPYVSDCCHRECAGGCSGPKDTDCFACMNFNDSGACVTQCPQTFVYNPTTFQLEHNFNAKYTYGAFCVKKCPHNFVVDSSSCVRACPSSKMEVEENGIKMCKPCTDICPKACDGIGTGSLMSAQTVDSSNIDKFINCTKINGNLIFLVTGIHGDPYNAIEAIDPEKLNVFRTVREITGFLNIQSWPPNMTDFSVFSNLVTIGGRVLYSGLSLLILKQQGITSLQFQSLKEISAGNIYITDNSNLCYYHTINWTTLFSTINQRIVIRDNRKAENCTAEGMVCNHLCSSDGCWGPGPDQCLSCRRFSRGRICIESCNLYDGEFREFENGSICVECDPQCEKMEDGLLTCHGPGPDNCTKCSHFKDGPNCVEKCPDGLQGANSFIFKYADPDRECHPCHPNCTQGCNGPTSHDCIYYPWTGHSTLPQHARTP
Experimental: A binding assay is utilized to perform high-throughput screening of NRG4 variant Fc fusion proteins to HER4 receptor, to identify affinity-driven variants with the potential to increase receptor activation and signaling. ELISA plates are coated with an anti-His tag antibody at 2 μg/ml in PBS to facilitate the standardized capture of a C-terminal His-tagged HER4 receptor extracellular domain (ECD) construct after blocking the plate with 1% BSA/PBS/0.1% Tween 20 (HER4 ECD at 5 μg/ml). Saturating amounts of unpurified NRG4-Fc variants in expression media (Starting at 10 μg/ml with serial dilutions in 1% BSA/PBS/0.1% Tween 20) are incubated with the captured receptor for 1 hour. After washing, bound variant NRG4-Fc is detected colorimetrically with an anti-human Fc-specific alkaline phosphatase secondary detection reagent to quantitate binding. Incubation times of variant binding to receptor or durations of the subsequent wash steps are varied to further identify binding variants driven by affinity on-rate and off-rate, respectively.

[3] = Dose # 1: Example 1 10.65, WT NRG1 10, WT NRG4 17 μg/mL
[4] = Dose # 2: Example 1 5.325, WT NRG1 5, WT NRG4 8.5 μg/mL
[5] = Dose # 3: Example 1 2.6625, WT NRG1 2.5, WT NRG4 4.25 μg/mL
[6] = Dose # 4: Example 1 1.33125, WT NRG1 1.25, WT NRG4 2.125 μg/mL
[7] = Dose # 5: Example 1 0.665625, WT NRG1 0.625, WT NRG4 1.0625 μg/mL
[8] = Dose # 6: Example 1 0.332813, WT NRG1 0.3125, WT NRG4 0.53125 μg/mL
[9] = Dose # 7: Example 1 0.166406, WT NRG1 0.15625, WT NRG4 0.265625 μg/mL
[10] = Dose # 8: Example 1 0.083203, WT NRG1 0.078125, WT NRG4 0.132813 μg/mL
[11] = Dose # 9: Example 1 0.041602, WT NRG1 0.039063, WT NRG4 0.066406 μg/mL
[12] = Dose # 10: Example 1 0.020801, WT NRG1 0.019531, WT NRG4 0.033203 μg/mL
[13] = Dose # 11: Example 1 0.0104, WT NRG1 0.009766, WT NRG4 0.016602 μg/mL
[14] = Dose # 12: Example 1 0.0052, WT NRG1 0.004883, WT NRG4 0.008301 μg/mL

Molecule | EC50 [1] [nM] | phospho-ERK1/2 activity at the human HER3 HER2 receptors ([1]; statement in text on Table 9) | O.D. 405, binding to HER4 extracellular domain [2, 3] | O.D. 405, binding to HER4 extracellular domain [2, 4] | O.D. 405, binding to HER4 extracellular domain [2, 5] | O.D. 405, binding to HER4 extracellular domain [2, 6] | O.D. 405, binding to HER4 extracellular domain [2, 7] | O.D. 405, binding to HER4 extracellular domain [2, 8] | O.D. 405, binding to HER4 extracellular domain [2, 9] | O.D. 405, binding to HER4 extracellular domain [2, 10] | O.D. 405, binding to HER4 extracellular domain [2, 11] | O.D. 405, binding to HER4 extracellular domain [2, 12] | O.D. 405, binding to HER4 extracellular domain [2, 13] | O.D. 405, binding to HER4 extracellular domain [2, 14]
WT NRG4: wild type human NRG4 (SEQ ID NO:1); parental hFcNRG4 in screening (Tables 4-6), native peptide from Reprokine in Tables 7-9 (DHEEPCGPSHKSFCLNGGLCYVIPTIPSPFCRCVENYTGARCEEVFL; listed as Homo sapiens) | > 1000 | no activity | 0.651 | 0.597 | 0.485 | 0.347 | 0.224 | 0.154 | 0.111 | 0.088 | 0.071 | 0.07 | 0.066 | 0.066
WT NRG1: wild type human NRG1; native peptide purchased from Reprokine in Tables 7-9; comparator in the screening assays of Tables 4 and 6 | 0.83 ± 0.2 |  | 1.501 | 1.439 | 1.399 | 1.31 | 1.27 | 1.022 | 0.8 | 0.514 | 0.316 | 0.179 | 0.114 | 0.084
Example 10: NRG4 D1G/V22Q/E44K, (GGGGS)3 linker, SEQ ID NO: 19, fused to IgG Fc dimer SEQ ID NO: 6 and 7 (protein) chain 1: GGGGSGGGGSGGGGSGHEEPCGPSHKSFCLNGGLCYQIPTIPSPFCRCVENYTGARCEKVFL chain 2: ECPPCPAPPVAGPSVFLFPPKPKDTLMISRTPEVTCVVVDVSHEDPEVQFNWYVDGVEVHNAKTKPREEQFNSTFRVVSVLTVVHQDWLNGKEYKCKVSNKGLPAPIEKTISKTKGQPREPQVYTLPPSREEMTKNQVSLWCLVKGFYPSDIAVEWESNGQPENNYKTTPPVLDSDGSFFLYSKLTVDKSRWQQGNVFSCSVMHEALHNHYTQKSLSLSPG chain 3: ECPPCPAPPVAGPSVFLFPPKPKDTLMISRTPEVTCVVVDVSHEDPEVQFNWYVDGVEVHNAKTKPREEQFNSTFRVVSVLTVVHQDWLNGKEYKCKVSNKGLPAPIEKTISKTKGQPREPQVYTLPPSREEMTKNQVSLSCAVKGFYPSDIAVEWESNGQPENNYKTTPPVLDSDGSFFLVSKLTVDKSRWQQGNVFSCSVMHEALHNHYTQKSLSLSPG | > 1000 |  |  |  |  |  |  |  |  |  |  |  |  | 
